Measured values taken from US20220242936A1 (CHANGCHUN GENESCIENCE PHARMACEUTICAL, published 2022).

Key:
[1] = target: T1, Aβ1-42 polypeptide (human); assay: ELISA EC50 on Aβ42 monomer, 2 ml transient transfection; table note: '-' means no combination; expression 68.4 mg/L
T1 construct: Synthetic peptide; also called Aβ1-42 monomer; Aβ monomer

[2] = target: T1, Aβ1-42 polypeptide; assay: ELISA EC50 on Aβ42 monomer, 2 ml transient transfection; table note: '-' means no combination; expression 7.72 mg/L
[3] = target: T1, Aβ1-42 polypeptide; assay: ELISA EC50 on Aβ42 monomer, 2 ml transient transfection; table note: '-' means no combination; expression 6.14 mg/L

T1 sequence (peptide, as listed by the source): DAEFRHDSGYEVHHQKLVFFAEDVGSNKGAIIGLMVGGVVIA

B1: 066-4.26.14H1L5 (antibody, human IgG1, V domains shown)
VH: EVQLVESGGGLVKPGGSLRLSCAASGFTFRSYAMSWVRQAPGKGLEWVASISTTSNTYYPDSVKGRFTTSRDNAKNSLYLQMNSLRAEDTAVYYCGRGVITNQAWFAYWGQGTLVTVSS
VL: EIVLTQSPDFQSVTPKEKVTITCRASQSISNNLHWYQQKPDQSPKLLIKYASQSISGVPSRFSGSGSGTDFTLTINSLEAEDAATYYCQQSNSWPLTFGQGTKVEIKR
notes: Humanized full-length antibody; human IgG1 heavy constant and human kappa light constant (vectors pGS003-hIgG1CH, pGS003-hIgKCL)
binding result [1]: no binding

B2: 066-4.26.14H2L4 (antibody, human IgG1, kappa, V domains shown)
VH: EVQLVESGGGLVKPGGSLRLSCAASGFTFRSYAMSWVRQTPEKRLEWVASISTTSNTYYPDSVKGRFTTSRDNAKNSVYLQMSSLRAEDTAVYYCGRGVITNQAWFAYWGQGTTVTVSS
VL: EIVLTQSPGTLSLSPGERATLSCRASQSISNNLHWYQQKPGQAPRLLIKYASQSISGIPDRFSGSGSGTDFTLTISRLEPEDFAVYYCQQSNSWPLTFGGGTKVEIKR
notes: as for B1
binding result [2]: no binding

B3: 066-4.26.14H2L5 (antibody, human IgG1, kappa, V domains shown)
VH: EVQLVESGGGLVKPGGSLRLSCAASGFTFRSYAMSWVRQTPEKRLEWVASISTTSNTYYPDSVKGRFTTSRDNAKNSVYLQMSSLRAEDTAVYYCGRGVITNQAWFAYWGQGTTVTVSS
VL: EIVLTQSPDFQSVTPKEKVTITCRASQSISNNLHWYQQKPDQSPKLLIKYASQSISGVPSRFSGSGSGTDFTLTINSLEAEDAATYYCQQSNSWPLTFGQGTKVEIKR
notes: as for B1
binding result [3]: no binding
